Test results from publication PMC10027511 (2023).

Assays:
[1] = target: T1, Sos site 2 peptide site 2 peptide (Drosophila melanogaster, UniProt P26675); assay: 19F NMR lineshape analysis, 45 °C
T1 chain: GELSPPPIPPRL

[2] = target: T1, Sos site 2 peptide site 2 peptide; assay: 19F NMR lineshape analysis, 25 °C
[3] = target: T1, Sos site 2 peptide site 2 peptide; assay: 19F NMR lineshape analysis, 15 °C
[4] = target: T1, Sos site 2 peptide site 2 peptide; assay: 19F NMR lineshape analysis, 35 °C
[5] = target: T1, Sos site 2 peptide site 2 peptide; assay: 19F NMR lineshape analysis, 4.2 °C

- Kd [1]: 110 µM
- Kd [2]: 33 µM
- Kd [3]: 17 µM
- Kd [4]: 59 µM
- Kd [5]: 9 µM
B1: Drk N-terminal SH3 domain N-terminal SH3 (protein)
chain: MEAIAKHDFSATADDELSFRKGQILKILNMEDDSNWYRAELDGKEGLIPSNYIEMKNH
